Article PMC3401230, “The Crystal Structures of Dystrophin and Utrophin Spectrin Repeats: Implications for Domain Boundaries” (PLoS ONE, 2012)

Target: the molecule itself
Assay: SEC; Superdex 75 HR 30/10; Utr-SR1 in 20 mM Tris pH 8.0, 50 mM NaCl; Dys-SR1 in PBS; no DTT added

B1: Dystrophin N-terminal (repeat 1) spectrin repeat (domain or fragment, human, UniProt P11532 338-456, looked up)
chain: EVNLDRYQTALEEVLSWLLSAEDTLQAQGEISNDVEVVKDQFHTHEGYMMDLTAHQGRVGNILQLGSKLIGTGKLSEDEETEVQEQMNLLNSRWECLRVASMEKQSNLHRVLMDLQNQK
notes: dystrophin, human, residues 338-456 (first spectrin repeat); Without a reducing agent part of the protein is a dimer linked by a disulphide bond between C433 of each molecule; The model in PDB 3UUN holds residues 338-453 (monomer A) and 339-452 (monomer B); Tag and cleavage are told only as 'prepared in an equivalent manner' to Utr-SR1; also called Dys-SR1; source: E. coli BL21(DE3), purified in …
**Q.** Does B1 bind?
**A.** Result: binds
